{"source": "patent US20060148030A1", "about": "“Nuclear receptor err y 3” (FUJISAWA PHARMACEUTICAL CO., LTD, priority 2002, published 2006)", "molecules": {"B1": {"name": "ERRγ2: known human ERRγ isoform, the long form (SEQ ID NO: 6) (protein, listed as Homo sapiens)", "chain": "MDSVELCLPESFSLHYEEELLCRMSNKDRHIDSSCSSFIKTEPSSPASLTDSVNHHSPGGSSDASGSYSSTMNGHQNGLDSPPLYPSAPILGGSGPVRKLYDDCSSTIVEDPQTKCEYMLNSMPKRLCLVCGDIASGYHYGVASCEACKAFFKRTIQGNIEYSCPATNECEITKRRRKSCQACRFMKCLKVGMLKEGVRLDRVRGGRQKYKRRIDAENSPYLNPQLVQPAKKPYNKIVSHLLVAEPEKIYAMPDPTVPDSDIKALTTLCDLADRELVVIIGWAKHIPGFSTLSLADQMSLLQSAWMEILILGVVYRSLSFEDELVYADDYIMDEDQSKLAGLLDLNNAILQLVKKYKSMKLEKEEFVTLKAIALANSDSMHIEDVEAVQKLQDVLHEALQDYEAGQHMEDPRRAGKMLMTLPLLRQTSTKAVQHFYNIKLEGKVPMHKLFLEMLEAKV"}}, "target": "T1, ERα (Homo sapiens, UniProt P03372)", "T1 construct": "expressed in transfected cells; host or cells: CV-1 (African green monkey kidney)", "T1 sequence (P03372 1-595)": "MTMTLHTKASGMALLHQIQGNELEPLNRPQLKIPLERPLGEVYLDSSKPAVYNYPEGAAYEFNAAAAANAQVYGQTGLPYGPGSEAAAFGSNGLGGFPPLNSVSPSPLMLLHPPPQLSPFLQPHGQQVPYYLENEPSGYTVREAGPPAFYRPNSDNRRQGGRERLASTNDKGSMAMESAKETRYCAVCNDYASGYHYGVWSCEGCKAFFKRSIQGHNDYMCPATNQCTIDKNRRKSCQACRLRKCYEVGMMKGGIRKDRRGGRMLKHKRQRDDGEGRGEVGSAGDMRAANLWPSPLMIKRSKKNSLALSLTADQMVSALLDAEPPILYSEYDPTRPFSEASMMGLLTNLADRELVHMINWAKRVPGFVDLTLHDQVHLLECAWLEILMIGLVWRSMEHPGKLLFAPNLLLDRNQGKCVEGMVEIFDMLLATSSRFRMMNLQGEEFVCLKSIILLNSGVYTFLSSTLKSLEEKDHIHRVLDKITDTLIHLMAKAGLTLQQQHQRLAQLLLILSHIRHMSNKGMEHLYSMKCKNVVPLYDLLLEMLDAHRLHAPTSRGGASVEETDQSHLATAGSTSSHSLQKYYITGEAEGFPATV", "experiment": "Reporter gene assay, ERRγ3 or ERRγ2 coexisted with ERα in CV-1 cells", "assay_type": "cell-based", "conditions": "ERRγ2 with ERα, CV-1 cells; FIGS. 19-20", "protocol": "The reporter gene assay was performed using CV-1 cells (African green monkey kidney-derived cell line) as hosts. Host cells were transfected with luciferase reporter plasmids and expression plasmids for ERRγ3, ERRγ2, or both. They were then exposed to 4-hydroxytamoxifen at different concentrations (0, 10^−10 to −10^−5 M) for 24 hours, whereupon luciferase activity within the cells was measured.\nTransfection was performed as follows: CV-1 cells were suspended at 2×10^5 cells/2.5 ml in DMEM medium supplemented with 10% fetal bovine serum, 2000 U/l of penicillin G, and 100 mg/l streptomycin. These cells were seeded to a 6-well plate at 2.5 ml/well, and cultured for 18 to 24 hours in a CO2 incubator at 37° C. in the presence of 5% CO2. 1 μg of each of the transcription factor expression plasmid, the luciferase reporter plasmid, and another luciferase reporter plasmid for normalizing the measured value (pRL-TK), were dissolved in Opti-MEM (Gibco BRL) to total of 150 μl. 7 μl of the cell transfection reagent LipofectAMINE 2000 (Gibco BRL) was diluted in 143 μl of Opti-MEM, and this was added to the mixture drop by drop while stirring. The mixture was incubated for 20 minutes.\nThe LipofectAMINE-DNA mixture was diluted in 1.5 ml of Opti-MEM, and added to cells that had been twice washed with 1 ml of PBS(−). The cells were cultured for four hours. The transfection reagent was removed from the culture, and 200 μl of trypsin/EDTA was added to the cells, which were then incubated at 37° C. for five minutes. […] of DMEM was added to suspend the cells, which were transferred to a centrifuge tube, and centrifuged for three minutes at 1000 rpm. After centrifugation, the cells were resuspended in DMEM to a concentration of 1.6×10^4 cells/100 μl, and 100 μl samples were seeded to a 96-well plate. When evaluating agents, a two-fold concentrated solution was made by pre-diluting a 1000 times concentrated agent DMSO solution with culture medium. 50 μl of the solution was mixed with 50 μl of a cell suspension at 1.6×10^4 cells/50 μl, and the culture was incubated in a CO2 incubator at 37° C. and 5% CO2 for 24 hours.\nLuciferase activity was measured using the Dual-Luciferase™ Reporter Assay System (Promega). The culture supernatant was removed from each well of the 96-well plate and washed once with 100 μl of PBS(−). 20 μl of ×1 PLB (Passive Lysis Buffer) was added, and the mixture was incubated at room temperature for 15 minutes, and then stored at −20° C. in the freezer until use. […] The protocol for measurement was as follows: 50 μl of Luciferase Assay Reagent II was added to each well, stirred for 0.3 seconds and measured for one second. […] of Stop&Glo™ Reagent was then added, stirred for 0.3 seconds, and measured for one second. […] Average values and standard errors were calculated from triplicate samples.\nTo confirm whether or not ERRγ3 can regulate the transcription-controlling function of nuclear receptors other than ERRγ2, ERRγ3's function of regulating the transcription-controlling activity of nuclear receptors related to ERRγ (ERα, ERβ, and TR) was evaluated using a reporter gene assay. […] In addition to 4-hydroxytamoxifen, the cells were also contacted with 10^−5 M of (R)-estradiol in experiments related to ERα and ERβ, and 10^−5 M of thyroxine in the experiment related to TR.\nThe transfected cells were contacted with varying concentrations of 4-hydroxytamoxifen in the absence of […] or presence of 10^−7 M of β-estradiol.", "data": [{"molecule": "B1", "values": [{"measurement": "enhancement of transcription when ERRγ2 coexisted with ERα", "result": "showed the function of enhancing transcription"}]}]}
